Results on 10 molecules are retold here after patent publication US20170129940A1.

Holding throughout (details): remark: other sources report otherwise
The target in assay [1] is T1, hCMV gH + gL + UL128 + UL130 + UL131A (co-expressed in HEK293T cells) (human cytomegalovirus), P12824. In words: competitor: 2F4-biotin; cell staining.
The target in assay [2] is T1, hCMV gH + gL + UL128 + UL130 + UL131A …. The assay can be described thus: competitor: 5A2-biotin; cell staining.
Assay [3] has the same target. In words: competitor: 6G4-biotin; cell staining.
Assay [4] shares this target. The assay can be described thus: competitor: 10F7-biotin; cell staining.
For assay [5] the target is unchanged. The assay can be described thus: competitor: 15D8-biotin; cell staining.
Assay [6] shares this target. In words: competitor: 1F11-biotin; cell staining.
For assay [7] the target is unchanged. In words: competitor: 4I22-biotin; cell staining.
For assay [8] the target is unchanged. In words: competitor: 4N10-biotin; cell staining.
Assay [9] shares this target. In words: competitor: 2C12-biotin; cell staining.
Assay [10] shares this target. The assay can be described thus: competitor: 8I21-biotin; cell staining.
The target is the same in assay [11]. The assay can be described thus: competitor: 9I6-biotin; cell staining.
For assay [12] the target is unchanged. The assay can be described thus: competitor: 8C15-biotin; cell staining.
Assay [13] has the same target. In words: competitor: 8J16-biotin; cell staining.

B1: 15D8 (antibody, V domains shown)
VH: EVQLVQSGAEVKKPGESLKISCQASGYSFTNYWIAWVRQMPGKGLEWMGIIYPGDSDIKYSPSFRGQVTISADKSISNAFLQWRSLRASDTAMYYCARHAIRGDGFDYWGQGTLVTVSS
VL: SYELTQPPSVSVSPGQTATITCSGDKLGEKYACWYQQKPGQSPVLVMYQDTKRPSGIPERFSGSNSGNTATLTISGTRAMDEADYYCQAWDTNTVIFGGGTKLTVL
As to B1, the Inhibition of binding (%) came out at 0% in assay [1]; 0% in assay [2]; 0% in assay [3]; 0% in [4]; 100% in assay [5]; 0% in assay [6]. For the same molecule, the Inhibition of binding (%) in assay [7], in assay [8], in assay [9] and in [10] was 0% each time.

B2: 7I13 (antibody, V domains shown)
VH: QVQLVESGGGVVQPGRSLRLSCAASGFTFSNYGMHWVRQGPGKGLEWVAVISYDASSKYYTDSVQGRFTISRDNSKNTLFLQMNSLRGEDTAVYYCAKALRYLDWFLSDPFDYWGQGTLVTVSS
VL: EIVLTQSPGTLSLSPGERATLSCRASQSVSSDFLAWYQQKPGQAPRLLIYGASSRATGIPDRFSGSGSGTDFTLTISRLEPEDFAVYYCQQYAASPPFGQGTRLEIK
Take B2: the Inhibition of binding (%) in assay [3], in assay [11], in assay [6], in assay [9], in assay [12] and in assay [10] was 0% in each case. The Inhibition of binding (%) in assay [13] is 0%.

B3: 8L13 (antibody, V domains shown)
VH: QVQLLESGGGVVQPGRSLRLSCAASGFTFSNYGMHWVRQAPGKGLEWVAVIWNDGSKKYYAESVKGRFTISRDNSKNTVYLQMNSLRAEDTAVYYCARDEGVQMVFAMPDYGMDVWGQGTTVTVSS
VL: SYELTQPPSVSVSPGQTASITCSGDKLGDKFACWYQQRPGQSPILVIYQDSKRPSGIPERFSGSNSGNTATLTIRGTQAMDEADYYCQAWDSSTAHYVFGTGTKVTVL
As to B3, the Inhibition of binding (%) in assay [4] and in assay [6] was 100% each time.

B4: 4I22 (antibody, V domains shown)
VH: QVQLVESGGGVVQPGRSLRLSCVASGFTFSSYAMHWVRQAPGKGLEWVAVISYDGDNKFYADSVKGRFRISRDTSKNTLYLEMNSLRAADTAIYYCAREELVGLMPPYYNYGLDVWGQGTTVTVSS
VL: QSVLTQPPSVSAAPGQKVTISCSGSNSNIGNNYVSWYQQLPGRAPKLLIYDNDHRPSGIPDRFSGSKSGTSATLVITGLQTGDEADYYCETWDTSLSAAVVFGGGTKLTVL
With B4, the Inhibition of binding (%) in assay [1] was 100%; in assay [2], 0%; in assay [4] it was 100%; in [6], 100%; in [7] it was 100%; in assay [8] it was 0%. Also, the Inhibition of binding (%) in [9], in assay [10] and in assay [13] was 0% in each case.

B5: 10F7 (antibody, V domains shown)
VH: EVQLVESGGGLVQPGRSLRLSCTASGFTFGDYAMSWFRQAPGKGLEWVGFIRSKAYGGTTEYAASVKGRFTISRDDSKSIAYLQMNSLKTEDTAVYYCTRASSLLWLLNPQPNFDYWGQGTLVTVSS
VL: SYVLTQPPSVSVAPGQTARITCGGNNIGSNNVHWYQQKPGQAPVLVVYDDSDRPSGIPERFSGSNSGNTATLTISRVEAGDEADYYCQVWDSSSDHPVFGGGTKLTVL
Regarding B5, the Inhibition of binding (%) in assay [1] is 100%; in assay [2], 0%; in assay [3], 0%; in [4], 100%; in assay [5], 0%; in assay [6], 100%. Moreover, the Inhibition of binding (%) in [7] stood at 100%; in [8] it was 0%; in [9], 0%; in assay [10], 0%.

B6: 8C15 (antibody, V domains shown)
VH: QVQLQESGPGLVKPSETLSLTCTVSGGSIRSYYWSWIRQPPGKGLEWIGHIYYSGNTNYSPSLQSRVTISLDTPKNQFSLRLSSVTAADTAVYYCARHDVIVVRGVFDVWGQGTVVTVSS
VL: QSALTQPASVSGSPGQSITISCTGTSSDIGTYNLVSWYQQHPGKAPKVLIYDGSKRPSGVSSRFSASKSGNTASLTISGLQAEDETDYYCCSYAGTSDFFVVFGGGTKLTVL
As for B6, the Inhibition of binding (%) was 100% in assay [3]; 100% in [11]; 0% in assay [7]; 100% in [9]; 100% in [12]; 0% in assay [10]. Moreover, the Inhibition of binding (%) in assay [13] is 100%.

B7: 4N10 (antibody, V domains shown)
VH: QVQLVQSGAEVKKPGSSVRVSCKASGGTFSSYVIIWVRQAPGQGLEWMGGVIPIFDTVNYAQKFQGRVTITADESTSTAYMELSSLKSEDTAVYYCARGILAYCGGDCYNTPYGMDVWGQGTTVTVSS
VL: DIQMTQSPSILSASVGDRVTITCRASQSISSWLAWYQQKPGKAPKLLIYKASSLEIGVPSRISGSGSGTEFTLTISSLQPDDFATYYCQQYNSSWTFGQGTKVEIK
As to B7, the Inhibition of binding (%) was found to be 0% in assay [1]; 100% in assay [2]; 0% in [3]; 0% in assay [4]; 0% in [5]; 0% in assay [6]. Also, the Inhibition of binding (%) in assay [7] turned out to be 0%; in assay [8], 100%; in assay [9], 0%; in [10], 90%.

B8: 8I21 (antibody, V domains shown)
VH: LVELVESGGGVVQPGRSLRLSCAASGFTFSSDGMHWVRQSPGRGLEWVAFISSDGSTPYYADSVKGRFTISRDNSKNTLYLQMNSLRAEDTAMYFCAKDWALFRWLRTFDHWGQGTLVTVSS
VL: not shown
As for B8, the Inhibition of binding (%) in assay [1] was 0%; in assay [2], 95%; in assay [3], 0%; in [5] it was 0%; in assay [6] it was 0%; in assay [7] it was 0%. Also, the Inhibition of binding (%) in assay [8] amounted to 90%; in [9], 0%; in assay [10] it was 100%.

B9: 10P3 (antibody, V domains shown)
VH: EVQLVESGGGLVRPGGSLRLSCAASGFTFHNYRMNWVRQAPGKGLEWVANIKQDGSEKSYVDSVRGRFTTSRDNSKNSLYLQINSLRAEDTAVYYCARGEGYTYGVVYSYSAMDVWGQGTTVIVSS
VL: SYELTQPPSVSVSPGQTARITCSGNVLPNQYASWYQQKPGQAPVLVIYKDTERPSGIPGRFSGSSSGTTVTLTISGVQAEDEADYYCQSADSSGADYVFGTGTKVTVL
Regarding B9, the Inhibition of binding (%) in [1], in assay [3], in assay [5], in [6], in [7] and in assay [9] was 0% throughout. For the same molecule, the Inhibition of binding (%) in assay [10] stood at 0%.

B10: 7B13 (antibody, V domains shown)
VH: QVQLVESGGGVVQPGGSLRLSCAASGFSFSNYGMHWVRQAPGKGLEWVALIPSDGNYQYYTDSVKGRFTVSRDNSRNTLYLQMKSLRAEDTARYHCAHLGGGLFDFWGQGTLVTVSS
VL: QSALNQPRSVSGSPGQSVSISCTGSSSDVGGYEFVSWYQHHPGKAPKLIIYDVDKRPSGVPDRFSGSRSGDTASLTISGLQAEDEADYYCYSSADTWVFGGGTKLTVL
Regarding B10, the Inhibition of binding (%) in assay [3] was 100%; in assay [11], 100%; in [9], 100%; in assay [12] it was 100%; in assay [10], 0%; in assay [13] it was 100%.
